Experimental findings from patent US20100041743A1 are described below.

Test in all cases: cell-based or functional assay
Test [1] concerns the target anti-OVA mouse IgG1 (mAb, Sigma).
In test [2] the target is human IgG (Gammonativ, Octapharma).
The next test concerns the target rabbit IgG (Sigma).

The substance “hybrid bFcRn α-chain / mouse β2m receptor (bovine FcRn expressed in BAC 128E04 transgenic mice) (from UniProt F6R592 35-358; P01887 21-119)” gave a beta-phase half-life (hours) of injected mouse IgG in bFcRn Tg mice (line #14 homozygote), 10 µg/BWg in test [1] of 165 h. Further, in test [2], the beta-phase half-life (hours) of injected human IgG in bFcRn Tg mice (line #14 homozygote), 10 µg/BWg came out at 172 h and the beta-phase half-life (hours) of injected human IgG in bFcRn Tg mice (line #14 homozygote), 20 µg/BWg was found to be 181 h. The half-life of injected rabbit IgG in bFcRn/mFcRn-/- mice (15 hours in FcRn-/- mice) with rabbit IgG (Sigma) turned out to be 67 h.
